Earlier results on 1 substance are cited in paper PMC7920998.

The subject of the series is Glu122. Description: kinetics. The conditions noted are these: enzyme reacting with O2 (non-native substrate); further details not given.

Take “Cytochrome c-dependent nitric oxide reductase (cNOR, PdNOR) (Paracoccus denitrificans)”: the pKa is reported as ~ 6.6.
